Consider 26 molecules from patent US20240327517A1 (SUZHOU SMARTNUCLIDE BIOPHARMACEUTICAL, published 2024).

First the molecules themselves.
B1: C37-ST-YS (VHH)
VHH: QLQLVESGGGLVQAGGSLRLSCAASGLTFEDYAIGWFRQAPGKEREGISCIRIYDGNTYYAESVKGRFTISSDNAKNQVYLQINSLKPEDTAVYYCAAGSYYSCSVYPDYDMDYWGKGTLVTVSS
notes: Mutant of section 1.1 (Protein A test); No tag is mentioned for this section
B2: C37-YMS (VHH)
VHH: B1 VHH with I83M
notes: as for B1
B3: C37-YDMS (VHH)
VHH: B1 VHH with E62D, I83M
notes: as for B1
B4: C37-S60Y (VHH)
VHH: B1 VHH with S85T
notes: as for B1
B5: C37-YDS (VHH)
VHH: B1 VHH with E62D
notes: as for B1
B6: C37 single-domain antibody (untagged) (VHH)
VHH: B1 VHH with Y60S, S85T
notes: The untagged construct was expressed in HEK293 and used in the Protein A test; also called C37 antibody
B7: C37-S72R (histidine-tagged) (VHH)
VHH: B1 VHH with Y60S, S72R, S85T
notes: not shown: histidine tag
B8: C37-RSA (histidine-tagged) (VHH)
VHH: B1 VHH with Y60S, S72R, D109A
notes: not shown: histidine tag
B9: C37-SRA (histidine-tagged) (VHH)
VHH: B1 VHH with E30S, Y60S, S72R, S85T, D109A
notes: not shown: histidine tag
B10: C37-D111A (histidine-tagged) (VHH)
VHH: B1 VHH with Y60S, S85T, D111A
notes: not shown: histidine tag
B11: C37-TMS (histidine-tagged) (VHH)
VHH: B1 VHH with Y60S, Q78T, I83M
notes: not shown: histidine tag
B12: C37-E30S (histidine-tagged) (VHH)
VHH: B1 VHH with E30S, Y60S, S85T
notes: not shown: histidine tag
B13: C37-M112L (histidine-tagged) (VHH)
VHH: B1 VHH with Y60S, S85T, M112L
notes: not shown: histidine tag
B14: C37-D31Y (histidine-tagged) (VHH)
VHH: B1 VHH with D31Y, Y60S, S85T
notes: not shown: histidine tag
B15: C37-KL-QQ (histidine-tagged) (VHH)
VHH: B1 VHH with Y60S, S85T, K117Q, L120Q
notes: not shown: histidine tag
B16: C37-SR (histidine-tagged) (VHH)
VHH: B1 VHH with E30S, Y60S, S72R, S85T
notes: not shown: histidine tag
B17: C37-SRS (histidine-tagged) (VHH)
VHH: B1 VHH with E30S, Y60S, S72R
notes: not shown: histidine tag
B18: C37-RA (histidine-tagged) (VHH)
VHH: B1 VHH with Y60S, S72R, S85T, D109A
notes: not shown: histidine tag
B19: C37-T85S (histidine-tagged, section 1.2) (VHH)
VHH: B1 VHH with Y60S
notes: not shown: histidine tag
B20: C37-SA (histidine-tagged) (VHH)
VHH: B1 VHH with Y60S, D109A
notes: not shown: histidine tag
B21: C37-D109A (histidine-tagged) (VHH)
VHH: B1 VHH with Y60S, S85T, D109A
notes: not shown: histidine tag
B22: C37H (humanized variant of C37-F1) (VHH)
VHH: QVQLVESGGGLVQPGGSLRLSCAASGLTFSDYAIGWFRQAPGKEREGISCIRIYDGNTYYADSVKGRFTISRDNSKNHVYLQMNSLRAEDTAVYYCAAGSYYSCSVYPAYDLDYWGKGTLVTVSS
B23: C37-H2 (humanized variant of C37-F1) (VHH)
VHH: B22 VHH with G56R, K117Q
B24: C37-H1 (humanized variant of C37-F1) (VHH)
VHH: B22 VHH with N57R, K117Q
B25: C37-H3 (humanized variant of C37-F1) (VHH)
VHH: B22 VHH with S75A
B26: C37-H4 (humanized variant of C37-F1) (VHH)
VHH: B22 VHH with R87K, A88P

Residue numbers refer to the chain shown, from its start. Names may count otherwise.

The target in the first assay is T1, PROTEIN A (packing of the PROTEIN A affinity chromatography) (UniProt P38507 37-327, limits assumed). Put plainly: binding to the Protein A affinity packing.
For B1, the binding result was “no binding”.
With B2, the binding result is “no binding”.
The same measure, in the same setting: for B3 the value was “no binding”; for B4, “no binding”; for B5, “no binding”.

In the next assay the target is T1, PROTEIN A (packing of the PROTEIN A …). Nature of the assay: Protein A affinity chromatography of HEK293-expressed protein, SDS-PAGE of fractions. From the text: After preliminary screening and identification, C37-cHis was selected as a final antibody sequence (including a histidine tag) from candidate antibodies, and meanwhile, an untagged recombinant plasmid C37 was constructed. HEK293 cells were transfected with the single-domain antibody C37 fusion protein plasmid constructed by the above recombination for expression of an antibody. […] Therefore, it was necessary to optimize the sequence of the C37 antibody to allow purification of the C37 antibody by affinity chromatography.
The recombinant plasmid C37 and the mutated recombinant plasmid C37-YDHMS were subjected to antibody expression via the HEK293 cells, respectively, and purification was conducted by means of the packing of the PROTEIN A affinity chromatography, in order to verify the binding to the affinity packing after the mutations.
As to B6, the binding result is reported as “no binding”.

The target in another assay is T2, CD8α Fc fusion protein (UniProt P01732 22-182, limits assumed).
T2 construct: Used as the coating antigen of the ELISAs; also called CD8α antigen; CD8α protein; not shown: Fc part
T2 sequence (P01732 22-182 limits assumed): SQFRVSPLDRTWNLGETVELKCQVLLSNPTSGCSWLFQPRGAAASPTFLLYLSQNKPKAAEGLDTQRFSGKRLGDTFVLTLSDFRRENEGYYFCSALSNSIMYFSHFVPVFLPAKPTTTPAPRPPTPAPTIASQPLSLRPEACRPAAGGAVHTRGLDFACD
Nature of the assay: ELISA, plate coated with CD8α Fc fusion protein, anti-His-HRP detection, 4-parameter fit; relative to C37. From the text:
The expression level and binding activity of each mutant were separately detected. For the sake of detection, a histidine-tagged recombinant plasmid was used in this section for transient transfection, after which a recombinant protein was purified by affinity chromatography with a corresponding Ni+ resin gel, thereby obtaining a protein of interest for direct use in the detection of expression level and binding activity.
(§1) After washing, an anti-His horseradish peroxidase-labeled antibody was added to allow reaction for 1 hour at room temperature. After washing, a chromogenic solution was added, and an absorption value was read at a wavelength of 450 nm. The software SotfMaxPro v5.4 was used for data processing and diagraph analysis; four-parameter fitting was performed to obtain the binding curve of the mutated antibody to CD8α; and different mutants were compared in relative activity with the C37 antibody as a control, in order to reflect the affinity of the antibody to CD8α.
For orientation: An ELISA detects its analyte on a solid surface through an enzyme-linked reagent.
As to B7, the “Relative activity (%)” value turned out to be 115%.
With B8, the “Relative activity (%)” value turned out to be 103%.
Same read-out and setting: with B9 the figure was 40%.
The same measure, in the same setting: with B10 the figure was 84.6%; with B11, 107%; with B12, 126%.
Same read-out and setting: for B13 the value was 206%; for B14, 48.4%.
As to B15, the “Relative activity (%)” value was found to be 141%.
The same measure, in the same setting: with B16 the figure was 42%; with B17, 33%.
Still for that read-out and setting: for B18 the value was 108%; for B19, 162%; for B20, 257%.
Still for that read-out and setting: for B21 the value was 476%.

A further assay concerns the target T2, CD8α Fc fusion protein. Put plainly: affinity detection of humanized variants (method not restated; taken as the CD8α Fc ELISA of section 1.2); relative to C37-F1. On the procedure: as §1
Turning to B22, the “Relative activity (%)” value was determined as 151%.
On the same count and under the same terms, for B23 the value was 122%.
For B24, the “Relative activity (%)” value amounted to 110%.
The same measure, in the same setting: for B25 the value was 171%.
Still for that read-out and setting: for B26 the value was 141%.
